Source: patent publication US9187525B2, “Methods of treating ophthalmic diseases using NPR-B agonists” (Shire Orphan Therapies GmbH, dated 2015)
Numbered stars: 1 amine (or outer) side, 2 acyl side, 3 side chain; on linkers, the order of the positions; unused ones are H or OH. Square brackets hold non-standard residues; d marks the D form. Primed or numbered codes have the meaning given here. Ends that are not written are not given here. * marks the point of attachment. Pro(trans-4-NH2) = O=C([C@@H]1C[C@@H](N[*:3])CN1[*:1])[*:2]; Sni = (S)-nipecotic acid, O=C([C@H]1CCCN([*:1])C1)[*:2]; cPrCO(1-aminomethyl) = O=C(C1(CN[*:1])CC1)[*:2]; pT = C[C@@H](OP(=O)(O)O)[C@H](N)C(=O)O; Cya = N[C@@H](CS(=O)(=O)O)C(=O)O; Hyp = O=C(O)[C@@H]1C[C@@H](O)CN1; pS = N[C@@H](COP(=O)(O)O)C(=O)O; dTle = CC(C)(C)[C@@H](N)C(=O)O; NMeL = CN[C@@H](CC(C)C)C(=O)O; Chg = N[C@H](C(=O)O)C1CCCCC1; Hyp(2581) = not defined here; orn(Me2) = not defined here; Nle = CCCC[C@H](N)C(=O)O; Octanoyl = CCCCCCCC(=O)*; dAbu = CC[C@@H](N)C(=O)O; 2797 = not defined here; 3806 = not defined here; 3816 = not defined here; 565 = not defined here; Che = not defined here; leu = not defined here; Ac3c = NC1(C(=O)O)CC1; Occ = octanoic acid

B1: JAL-1918 (peptide)
peptide: [Occ][Sni]F[orn(Me2)]L[Hyp][NMeL][pT]R[Che]
modifications: reading uncertain; also: printed as Occ-Sni-Phe-orn(Me2)-Leu-Hyp-Nml-Pth-Arg-Che
B2: JAL-1916 (peptide)
peptide: [Occ][Sni]F[orn(Me2)]L[Hyp][NMeL][pS]R[Che]
modifications: reading uncertain; also: printed as Occ-Sni-Phe-orn(Me2)-Leu-Hyp-Nml-Pse-Arg-Che
B3: JAL-1924 (peptide)
peptide: [Occ][Sni]F[orn(Me2)]L[Hyp][NMeL]TRI-NH2
modifications: reading uncertain; also: printed as Occ-Sni-Phe-orn(Me2)-Leu-Hyp-Nml-Thr-Arg-Ile-NH2
B4: JAL-0749 (peptide)
peptide: Octanoyl-[dA][dA]FGLKLDR[3816]
modifications: reading uncertain; also: printed as Occ-ala-ala-Phe-Gly-Leu-Lys-Leu-Asp-Arg-3816
B5: JAL-1921 (peptide)
peptide: [Occ][Sni]F[orn(Me2)]L[Hyp][NMeL]SRI-NH2
modifications: reading uncertain; also: printed as Occ-Sni-Phe-orn(Me2)-Leu-Hyp-Nml-Ser-Arg-Ile-NH2
B6: JAL-0771 (peptide)
peptide: XAAFGLKVDRI
modifications: not fully specified (residue 1, C-terminus); printed as Occ-ala-ala-Phe-Gly-Leu-Lys-Val-Asp-Arg-Ile-NH2
B7: JAL-1928 (peptide)
peptide: [Occ][Sni]F[leu]LX[NMeL]DRI-NH2
modifications: not fully specified (residue 6); printed as Occ-Sni-Phe-leu-Leu-Hyp(Asp(-))-Nml-Asp-Arg-Ile-NH2
B8: JAL-0751 (peptide)
peptide: Octanoyl-[dA][dA]FGLKLDR[3806]
modifications: reading uncertain; also: printed as Occ-ala-ala-Phe-Gly-Leu-Lys-Leu-Asp-Arg-3806
B9: JAL-1931 (peptide)
peptide: [Occ][Sni]F[orn(Me2)]L[Hyp][NMeL]DRI-OH
modifications: reading uncertain; also: printed as Occ-Sni-Phe-orn(Me2)-Leu-Hyp-Nml-Asp-Arg-Ile-OH
B10: JAL-0754 (peptide)
peptide: Octanoyl-[dA][dA]FGLKLDR[2797]
modifications: reading uncertain; also: printed as Occ-ala-ala-Phe-Gly-Leu-Lys-Leu-Asp-Arg-2797
B11: JAL-1936 (peptide)
peptide: [Occ][Sni]F[orn(Me2)]L[Pro(trans-4-NH2)][NMeL]DRI-NH2
modifications: reading uncertain; also: printed as Occ-Sni-Phe-orn(Me2)-Leu-Tap-Nml-Asp-Arg-Ile-NH2
B12: JAL-0769 (peptide)
peptide: Octanoyl-[dA][dA]FGLKLDRI-NH2
modifications: not fully specified (some residues); printed as Occ-ala-ala-Phe-Gly-Leu-Lys-leu-Asp-Arg-Ile-NH2
B13: JAL-1923 (peptide)
peptide: [Occ][Sni]F[orn(Me2)]L[Hyp][NMeL][Cya]RI-NH2
modifications: reading uncertain; also: printed as Occ-Sni-Phe-orn(Me2)-Leu-Hyp-Nml-Cya-Arg-Ile-NH2
B14: JAL-1917 (peptide)
peptide: Octanoyl-[Sni]FLL[Hyp][NMeL][pS]R[Che]
modifications: not fully specified (some residues); printed as Occ-Sni-Phe-leu-Leu-Hyp-Nml-Pse-Arg-Che; reading uncertain
B15: JAL-1929 (peptide)
peptide: [Occ][Sni]F[leu]L[Hyp(2581)][NMeL]DRI-NH2
modifications: reading uncertain; also: printed as Occ-Sni-Phe-leu-Leu-Hyp(2581)-Nml-Asp-Arg-Ile-NH2
B16: JAL-1935 (peptide)
peptide: [Occ][Sni]F[leu]LX[NMeL]DRI-NH2
modifications: not fully specified (residue 6); printed as Occ-Sni-Phe-leu-Leu-Tap(Asp(-))-Nml-Asp-Arg-Ile-NH2

Target: T1, natriuretic peptide receptor-B (human)
T1 chain: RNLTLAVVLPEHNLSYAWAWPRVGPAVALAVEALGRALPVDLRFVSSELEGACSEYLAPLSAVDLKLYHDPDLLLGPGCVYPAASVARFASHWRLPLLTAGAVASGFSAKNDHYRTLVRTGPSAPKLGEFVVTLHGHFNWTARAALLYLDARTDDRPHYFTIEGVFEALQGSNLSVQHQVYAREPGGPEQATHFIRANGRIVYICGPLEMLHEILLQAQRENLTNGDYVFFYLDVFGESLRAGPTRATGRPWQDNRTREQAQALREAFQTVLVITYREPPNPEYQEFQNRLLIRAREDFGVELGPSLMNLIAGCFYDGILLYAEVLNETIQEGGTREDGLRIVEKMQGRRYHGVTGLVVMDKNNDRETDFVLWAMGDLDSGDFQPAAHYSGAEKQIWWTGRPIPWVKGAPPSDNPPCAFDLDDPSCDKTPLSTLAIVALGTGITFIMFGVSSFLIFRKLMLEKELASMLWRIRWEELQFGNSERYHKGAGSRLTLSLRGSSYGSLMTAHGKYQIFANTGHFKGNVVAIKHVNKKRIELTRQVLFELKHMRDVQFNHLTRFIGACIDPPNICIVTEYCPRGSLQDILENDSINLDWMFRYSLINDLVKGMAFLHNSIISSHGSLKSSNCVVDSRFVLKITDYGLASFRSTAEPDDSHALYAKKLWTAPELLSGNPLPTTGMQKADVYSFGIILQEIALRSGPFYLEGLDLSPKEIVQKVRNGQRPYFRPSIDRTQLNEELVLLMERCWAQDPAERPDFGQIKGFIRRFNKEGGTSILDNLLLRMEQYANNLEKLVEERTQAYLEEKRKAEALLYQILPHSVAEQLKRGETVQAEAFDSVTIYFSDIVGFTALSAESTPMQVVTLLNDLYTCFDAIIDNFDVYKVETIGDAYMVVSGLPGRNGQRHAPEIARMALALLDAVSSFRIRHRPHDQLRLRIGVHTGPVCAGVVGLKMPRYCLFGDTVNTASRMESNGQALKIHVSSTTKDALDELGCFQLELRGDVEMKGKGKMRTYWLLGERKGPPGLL
Assay: cell-based or functional assay

Binder | EC50 group, cGMP in GTM-3 cells [µM]
B1 | ≤ 5
B2 | ≤ 15
B3 | ≤ 5
Octanoyl-[dA][dA]FGLPLDRI-NH2 [JAL-0781_01] | ≤ 5
Octanoyl-[dA][dA]FGLKIDRI-NH2 [JAL-0770] | ≤ 15
Octanoyl-[dAbu]FGLKLDRI-NH2 [JAL-0762] | ≤ 15
[Occ][dTle]FGLKLDRI-NH2 [JAL-0758] | ≤ 15
B4 | ≤ 15
B5 | ≤ 15
B6 | ≤ 15
B7 | ≤ 5
[Occ][Sni]F[leu]L[Hyp][NMeL][Cya]RI-NH2 (reading uncertain; also: printed as Occ-Sni-Phe-leu-Leu-Hyp-Nml-Cya-Arg-Ile-NH2) [JAL-1922] | ≤ 5
Octanoyl-[dS]FGLKLDRI-NH2 [JAL-0763] | ≤ 15
B8 | ≤ 15
[Occ][Sni]F[leu]L[Hyp][NMeL]SRI-NH2 (reading uncertain; also: printed as Occ-Sni-Phe-leu-Leu-Hyp-Nml-Ser-Arg-Ile-NH2) [JAL-1920] | ≤ 5
[Occ][Ac3c]FGLKLDRI-NH2 [JAL-0761] | ≤ 15
B9 | ≤ 5

Binder | EC50 group, cGMP in GTM-3 cells [µM]
B10 | ≤ 5
Octanoyl-[dV]FGLKLDRI-NH2 [JAL-0756] | ≤ 15
[Occ][cPrCO(1-aminomethyl)]FGLKLDRI-NH2 [JAL-0760] | ≤ 15
B11 | ≤ 1
B12 | ≤ 15
[Occ][Sni]F[leu]L[Hyp][NMeL]DRI-OH (reading uncertain; also: printed as Occ-Sni-Phe-leu-Leu-Hyp-Nml-Asp-Arg-Ile-OH) [JAL-1930] | ≤ 5
Octanoyl-[dA][dA]FGLK[Chg]DRI-NH2 [JAL-0772] | ≤ 15
B13 | ≤ 5
[Occ][Sni]F[leu]L[Hyp][NMeL]TRI-NH2 (reading uncertain; also: printed as Occ-Sni-Phe-leu-Leu-Hyp-Nml-Thr-Arg-Ile-NH2) [JAL-1932] | ≤ 1
Octanoyl-[dA][dA]FGLK[Nle]DRI-NH2 [JAL-0775] | ≤ 15
B14 | ≤ 15
Octanoyl-[dA][dA]FGLKLDR[565] (reading uncertain; also: printed as Occ-ala-ala-Phe-Gly-Leu-Lys-Leu-Asp-Arg-565) [JAL-0752] | ≤ 5
B15 | ≤ 5
Octanoyl-[dA][dA]FGLK[NMeL]DRI-NH2 [JAL-0776] | ≤ 15
[Occ][Sni]F[leu]L[Hyp][NMeL][pT]R[Che] (reading uncertain; also: printed as Occ-Sni-Phe-leu-Leu-Hyp-Nml-Pth-Arg-Che) [JAL-1919] | ≤ 5
B16 | ≤ 5
